In patent US12031137B2, “Compositions comprising SASP modulators and senescence attenuators and uses thereof for modulating cellular senescence” (RSEM, LIMITED PARTNERSHIP, priority 2016, dated 2024):

T1: human VEGF165 (Homo sapiens, UniProt P15692)
T1 construct: made in house; host or cells: HEK293T
T1 sequence (P15692 27-191 isoform P15692-4): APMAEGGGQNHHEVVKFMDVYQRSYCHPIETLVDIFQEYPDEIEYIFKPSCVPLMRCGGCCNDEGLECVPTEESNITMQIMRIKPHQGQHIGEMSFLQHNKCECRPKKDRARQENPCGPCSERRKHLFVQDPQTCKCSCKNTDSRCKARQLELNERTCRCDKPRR


Assays:
human VEGF165 = target: T1, human VEGF165; assay: AP-VEGF165 binding assay on plate-coated purified traps (saturation curves, KD); details: AP-VEGF165 ligand; for Kd: read-out: VEGF165 binding (dissociation constant)
Method: Production of AP-VEGF165. the coding sequence of the human VEGF165 variant 1 (NM_001025366) was sub-cloned in the pAPtag5 vector (GenHunter), in-frame with an Alkaline Phosphatase domain (AP-VEGF165). HEK293T cells were transfected with the AP-VEGF165 construct using a polyethylenimine (PEI) transfection method. Following the overnight transfection step, cells were cultured for an additional 60 hr in serum free media (In vitrogen). The cell media were collected and concentrated on a PES device (Pierce). The concentrated AP-VEGF165 ligand was analysed on PAGE-SDS and quantified using SimplyBlue safe stain (Life technologies).
(§1) Sema 3A and AP-VEGF165 binding assays. Saturation curves for the determinations of KD of binding to SEMA 3A or VEGF165 were obtained as follow. Wells of high protein binding 96 well plates (Maxisorp, Nunc) were coated with purified traps diluted in PBS and blocked afterward with binding buffer (PBS containing 2% casein and 0.05% Tween 20). The SEMA3A-FC (R&D systems) or AP-VEGF165 ligands were diluted in binding buffer over an extensive range of concentrations and added to wells. Following an overnight incubation, wells were washed with PBS containing 0.05% tween. Bound SEMA3a-FC was detected using an HRP-linked anti-Human IgG (Biorad) and ECL substrate (Pierce). Alternatively, bound AP-VEGF165 was detected using CPD star substrate (Roche). The Chemiluminescent signal was acquired on a TECAN reader. Dissociation constant (KD) were determined by non-linear curve fitting using the Graph Pad prism software.
(§2) The relative affinity of traps of the present invention to SEMA3A and VEGF has been assessed. Traps were prepared as described in Example 8.

SEMA3A-FC = assay: Sema 3A binding assay on plate-coated purified traps (saturation curves, KD); details: for Binding to SEMA3A: Table 2, Yes/No
Method: as §1, §2

[1] = tested on: mouse model of oxygen-induced retinopathy (OIR); assay: SA-β-gal staining of retinas in oxygen-induced retinopathy (OIR) after intravitreal injection; type: in vivo; details: single intravitreal injection at P12, vs vehicle
From the text: O2-induced retinopathy. Mouse pups from different strains (C57Bl/6 WT, LyzM-Cre, LysM-Cre/IRE1^fl/fl, LysM-Cre/IRE1^+/+, IRE1^fl/fl and LysM-Cre/ROSA26EYFP^fl/fl), and their fostering mothers (CD1, Charles River) were exposed to 75% 02 from postnatal day 7 (P7) to day 12 and returned to room air. This model serves as a proxy to human ocular neovascular diseases such as ROP and diabetic retinopathy characterized by a late phase of destructive pathological angiogenesis (72, 73). Upon return to room air, hypoxia-driven neovascularization (NV) develops from P14 onwards (27). We enucleated eyes at different time points and dissected the retinas for mRNA, protein assays or flatmounting.
Senescence-associated β-galactosidase (SA-β-gal) assay. Senescence-associated β-galactosidase assays were carried out as described previously (57, 75)
Quantification of SA-β-gal in vivo. Senescence-associated β-galactosidase staining in flatmount retinas or sagittal eye sections were analyzed using Image J software as described in FIG. 14.
Intravitreal injections. P2, P10 or P12 C57BL/6 pups were anesthetized with 3.0% isoflurane and injected in the vitreous chamber with 0.5 μL of lentivirus (see “Lentivirus production”), recombinant SEMA3A (100 ng/μL), metformin (10 μg/μL) or Aflibercept (10 μg/uL) using a 10-μL Hamilton syringe fitted with a […] glass capillary tip. Approximately 254±11.0 ng/μL of lentivirus Sh_GFP and 323.3±15.3 ng/μL containing Sh_Sema3a, Lv.Cre (15.0 ng/mL), Lv.GFP (15.0 ng/mL) was injected. Virus titers were assessed with the p24 ELISA kit (ZeptoMetrix). The titers of the lentiviruses used were (in ng p24) LV.Sh_RNA IRE1α (8.52 ng/mL), and LV.Sh_RNA.GFP (8.47 ng/mL).

Kd (human VEGF165)	Binding to SEMA3A (SEMA3A-FC)	preference for SEMA3A over VEGF binding (SEMA3A-FC; in words)	Kd (SEMA3A-FC; traps coated on plate, overnight incubation, read-out: SEMA 3A-FC binding (dissociation constant))	kd for SEMA3A relative to VEGF (SEMA3A-FC; see Table 6)	VEGF165 binding (dissociation constant) (human VEGF165)	SEMA 3A-FC binding (dissociation constant) (SEMA3A-FC; traps coated on plate, overnight incubation)	Molecule	SA-β-gal staining at P17 OIR (cellular senescence) [1]
6.75 nM	Yes	much less important	0.8 nM	–	–	–	Trap G: NRP1 trap a1a2-b1b2-c, aa about 22-856; SEQ ID NOs 67/68	significant attenuation
20.1 nM	Yes	–	–	about 20 ×	–	–	Trap M: NRP1 trap a1a2-b1, aa about 22-424; SEQ ID NOs 81/82 (protein) FRNDKCGDTIKIESPGYLTSPGYPHSYHPSEKCEWLIQAPDPYQRIMINFNPHFDLEDRDCKYDYVEVFDGENENGHFRGKFCGKIAPPPVVSSGPFLFIKFVSDYETHGAGFSIRYELFKRGPECSQNYTTPSGVIKSPGFPEKYPNSLECTYIVFAPKMSEIILEFESFDLEPDSNPPGGMFCRYDRLEIWDGFPDVGPHIGRYCGQKTPGRIRSSSGILSMVFYTDSAIAKEGFSANYSVLQSSVSEDFKCMEALGMESGEIHSDQITASSQYSTNWSAERSRLNYPENGWTPGEDSYREWIQVDLGLLRFVTAVGTQGAISKETKKKYYVKTYKIDVSSNGEDWITIKEGNKPVLFQGNTNPTDVVVAVFPKPLITRFVRIKPATWETGISMRFEVYGCRSGSKENLYFQG	significant attenuation
–	No	–	–	–	No binding	No binding	Trap AE: NRP1 trap a1a2b1b2, aa about 22-560, D320K; SEQ ID NOs 53/54 (protein) MERGLPLLCAVLALVLAPAGAFRNDKCGDTIKIESPGYLTSPGYPHSYHPSEKCEWLIQAPDPYQRIMINFNPHFDLEDRDCKYDYVEVFDGENENGHFRGKFCGKIAPPPVVSSGPFLFIKFVSDYETHGAGFSIRYELFKRGPECSQNYTTPSGVIKSPGFPEKYPNSLECTYIVFAPKMSEIILEFESFDLEPDSNPPGGMFCRYDRLEIWDGFPDVGPHIGRYCGQKTPGRIRSSSGILSMVFYTDSAIAKEGFSANYSVLQSSVSEDFKCMEALGMESGEIHSDQITASSQYSTNWSAERSRLNYPENGWTPGEKSYREWIQVDLGLLRFVTAVGTQGAISKETKKKYYVKTYKIDVSSNGEDWITIKEGNKPVLFQGNTNPTDVVVAVFPKPLITRFVRIKPATWETGISMRFEVYGCKITDYPCSGMLGMVSGLISDSQITSSNQGDRNWMPENIRLVTSRSGWALPPAPHSYINEWLQIDLGEEKIVRGIIIQGGKHRENKVFMRKFKIGYSNNGSDWKMIMDDSKRKAKSFEGNNNYDTPELRTFPALSTRFIRIYPERATHGGLGLRMELLGCRSGSKENLYFQG	–
